± gives the standard error. For some assays here: Variants at the floor of the assay were thinned out.
B1: glmS ribozyme (parent)
chain: AUAAAAGCGCCAGAACUACAGAAAUGUAGUUGACGAGGAGGAGGUUUAUCGAAUUUUCGGCGGAUGCCUCCAAA

Assays:
Conditions in all cases: with glucosamine-6-phosphate
glucosamine-6-phosphate [1] = variants of: B1; test: kcat; higher = faster cleavage; RNA array
Summary of the method: (§1)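 Barcoded ribozyme variants, transcribed in situ by E. coli RNA polymerase on sequenced MiSeq chips, were followed via a hybridised Cy3 probe at 37 °C. Glucosamine-6-phosphate ranged from 40 μM to 10 mM in HEPES/KCl/Mg(OAc)2 buffer. kobs came from decay fits to per-tile medians, and kcat and KM from weighted Michaelis–Menten fits.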

glucosamine-6-phosphate [2] = variants of: B1; test: KM; higher = weaker cofactor use; RNA array
Summary of the method: as §1

glucosamine-6-phosphate [3] = variants of: B1; test: self-cleavage kobs at 2500 uM GlcN6P; higher = faster cleavage; RNA array
Summary of the method: as §1

glucosamine-6-phosphate [4] = variants of: B1; test: self-cleavage kobs at 10000 uM GlcN6P; higher = faster cleavage; RNA array
Summary of the method: as §1

glucosamine-6-phosphate [5] = variants of: B1; test: self-cleavage kobs at 40 uM GlcN6P; higher = faster cleavage; RNA array
Summary of the method: as §1

glucosamine-6-phosphate [6] = variants of: B1; test: self-cleavage kobs at 160 uM GlcN6P; higher = faster cleavage; RNA array
Summary of the method: as §1

glucosamine-6-phosphate [7] = variants of: B1; test: self-cleavage kobs at 640 uM GlcN6P; higher = faster cleavage; RNA array
Summary of the method: as §1

Row | Variant | kcat (glucosamine-6-phosphate [1]) | KM (glucosamine-6-phosphate [2]) | self-cleavage kobs at 2500 uM GlcN6P (glucosamine-6-phosphate [3]) | self-cleavage kobs at 10000 uM GlcN6P (glucosamine-6-phosphate [4]) | self-cleavage kobs at 40 uM GlcN6P (glucosamine-6-phosphate [5]) | self-cleavage kobs at 160 uM GlcN6P (glucosamine-6-phosphate [6]) | self-cleavage kobs at 640 uM GlcN6P (glucosamine-6-phosphate [7])
1 | A12G G13A | 6.3e-05 ± 2.4e-06 s⁻¹ | 3470 ± 390 µM | 2.7e-05 ± 9.7e-06 s⁻¹ | 4.66e-05 ± 7.4e-06 s⁻¹ | – | – | –
2 | A36G U69A | 1.02e-05 ± 2.2e-06 s⁻¹ | – | – | – | – | – | –
3 | C10U U56G | 3.3e-05 ± 4.5e-06 s⁻¹ | – | 2.86e-05 ± 8.5e-06 s⁻¹ | 2.92e-05 ± 6.7e-06 s⁻¹ | – | – | –
4 | U31G U47G | 0.00226 ± 0.00055 s⁻¹ | 1880 ± 720 µM | 0.0016 ± 0.00031 s⁻¹ | 0.00176 ± 0.00028 s⁻¹ | 7.25e-05 ± 1.9e-05 s⁻¹ | 0.000127 ± 3.3e-05 s⁻¹ | 0.000663 ± 0.00011 s⁻¹
5 | A33G G63C | < 1e-05 s⁻¹ | – | – | – | < 1e-05 s⁻¹ | – | < 1e-05 s⁻¹
6 | C16U U65A | 0.00359 ± 0.00068 s⁻¹ | 2370 ± 610 µM | 0.00193 ± 0.00025 s⁻¹ | 0.00276 ± 0.00049 s⁻¹ | 7.34e-05 ± 1.2e-05 s⁻¹ | 0.000189 ± 2.9e-05 s⁻¹ | 0.000817 ± 0.00011 s⁻¹
7 | A15U U65C | 5.03e-05 ± 3.5e-06 s⁻¹ | – | 4.8e-05 ± 8.3e-06 s⁻¹ | 4.61e-05 ± 1.5e-05 s⁻¹ | – | – | 4.42e-05 ± 1.2e-05 s⁻¹
8 | U31A C50G U65C C67U | 0.000126 ± 2.3e-05 s⁻¹ | – | 0.000191 ± 4.1e-05 s⁻¹ | 0.000104 ± 1.9e-05 s⁻¹ | 8.02e-05 ± 1.6e-05 s⁻¹ | 0.000177 ± 5e-05 s⁻¹ | 0.000147 ± 4.9e-05 s⁻¹
9 | A36C U55C | < 1e-05 s⁻¹ | – | – | < 1e-05 s⁻¹ | – | – | –
10 | A14G C68A U69G | 0.000118 ± 2.9e-05 s⁻¹ | – | 9.76e-05 ± 1.8e-05 s⁻¹ | – | – | – | 0.000112 ± 2.8e-05 s⁻¹
11 | G29A C71A | 0.000446 ± 4.4e-05 s⁻¹ | 592 ± 140 µM | 0.000344 ± 0.0001 s⁻¹ | 0.000437 ± 0.00014 s⁻¹ | – | – | 0.000233 ± 4e-05 s⁻¹
12 | A53G C67U | 0.0134 ± 0.0047 s⁻¹ | 1400 ± 680 µM | 0.0175 ± 0.0045 s⁻¹ | 0.0111 ± 0.0015 s⁻¹ | 0.000512 ± 6.3e-05 s⁻¹ | 0.000969 ± 0.00016 s⁻¹ | 0.00617 ± 0.0011 s⁻¹
13 | U55C U56G | 0.0112 ± 0.0051 s⁻¹ | – | 0.00329 ± 0.00056 s⁻¹ | 0.0103 ± 0.0016 s⁻¹ | 0.000172 ± 3.6e-05 s⁻¹ | 0.000456 ± 6.4e-05 s⁻¹ | 0.00134 ± 0.00022 s⁻¹
14 | U46A U69G | 7.21e-05 ± 2.1e-05 s⁻¹ | – | 8.42e-05 ± 1.3e-05 s⁻¹ | 4.27e-05 ± 1.3e-05 s⁻¹ | – | – | 0.000107 ± 1.7e-05 s⁻¹
15 | A12C G43A | 6.99e-05 ± 1.2e-05 s⁻¹ | 1870 ± 800 µM | 3.76e-05 ± 8.6e-06 s⁻¹ | 6.33e-05 ± 1.9e-05 s⁻¹ | – | – | –
16 | G9A C16A | < 1e-05 s⁻¹ | 31.6 ± 7.6 µM | – | – | – | – | –
17 | U31G C70G | 0.000132 ± 1.8e-05 s⁻¹ | 595 ± 260 µM | 0.000118 ± 3.1e-05 s⁻¹ | 0.000126 ± 1.8e-05 s⁻¹ | – | 5.51e-05 ± 2.2e-05 s⁻¹ | 6.05e-05 ± 1.2e-05 s⁻¹

Source: the supplement of paper PMC7125110
